From the nanobody polyreactivity screen of Harvey et al. (2022)

Assay: yeast display, Sf9 membrane polyspecificity reagent, FACS + sequencing; frameworks hold sequencing errors
Summary of the method: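 Polyreactivity labels are assigned by the sorting gate from which each nanobody was recovered. The gates were low and high (top ~1%), set on anti-HA fluorescence for expression and streptavidin fluorescence for reagent binding. Before sorting, galactose-induced (36–48 hours) yeast display cells were stained for 1 hour at 4 °C with 10% biotinylated, detergent-solubilized Sf9 membrane reagent.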

Sequence	polyreactivity (PSR sort gate)
QVQLVESGGGLVQAGGSLRLSCAASGITFRWNAMGWYRQAPGKERELVAAITTRGGGTYYADSVKGRFTISRDNAKNTVYLQMNSLKPEDTAVYYCAAKKSRYPYNYWGQGTQVTVSS	high polyreactivity
QVQLVESGGGLVQAGGSHRLSCAASGSIFFSNARGWYRQAPGNERELFAAITWTGGSTYYADSVKGRFTISRDNAKNTVYLQMNSLKPEDTAVYYCNAAHQRDWYYAIYHLYYSPYYYWGQGSQVTVSS	low polyreactivity
QVQLVESCGGLVQAGGSLRLSCASSGRTIDSKAMGWYRQAPGKERELVAAISWSGGSTYYADSVKGRFTISRDNAKNTVYLQMNSLKPEDTAVYYCNRLGRHAPATRYGYWGQGTQVTVSS	high polyreactivity
QVQLVESGGGLVQAGGSLRLSCAASGSTLSDKSIGWYRQAPGKEMELVASISWSGGTYYADSVKGRFTISRDNAKNTVYLQMNSLKPEDTAVYYCAAYIYYNYSRQYLYDYWGQGTQVTVSS	low polyreactivity
QVQLVESGGGLVQAAGSLRLSCAASGITLYWYAMGWSRQAPGKERELVATISRRGGTTYYADSVKGRFTISRDNAKNTVYLQMNSLKPEDTAVYYCAKAPDTQTSWSRQEGNYWGQGTQVTVSS	low polyreactivity
QVQLVESGGGLVQAGGSLRLSCAASGFTFYVNAMGWYRQAPGKERELVAAITDDGDSTYYADSVKGRFTISRDNAKNTVYLQMNSLKPEDTAVYYCNTVYGPDLYGTEYDYWGQGTQVTVSS	low polyreactivity
QVQLVESGGGLVQAGGSLRLSCAAYGRIFFNNAMGWYRQAPGKERELVAAINSGGRTNYADSVKGRFTISRDNAKNTVYLQMNSLKPEDTAVYYCNADDYPVWEFDYWGQGTQVTVSS	low polyreactivity
QVQLVESGGGLVQAGGSLRLSCAASGSIIGYYAMGWYRQARGKERELVAAISSSGASTYYADSVKGRFTISRDNAKYTVYLQMNSLKPEDTAVYYCNAARRYPTRGGYWGQGTQVTVSS	high polyreactivity
QVQLVESGGGLVQAGGSLRLSCAASGSIFYTNAMGWYRQAPGKERELVAAITRTGSTNYADSVKGRFTISRDNAKNTVYLQMNSLKPEDTAVYYCNARRYYRYGYWGQGTQVTVSS	high polyreactivity
QVQLVESGGGLVQAGGSLRLSCAASGRTFWNYAMGWYRQAPGKERELVAVIRFSDGSTYYSDSVKGRFTISRDKAKNTVYLQMNSLKPEDTAVYYCGAKGPRRWGSGFDYWGQGTQVNVSS	low polyreactivity
QVQLVESGGGLVQAGGSLRLSCAASGSIFTYKAKVRYRQAPGKERELVAAISASGGSTYYADSVKGRFTISRDNAKHTVYVQMNSLKPEDTALYYCNAYQTSTPLFPGYGYWGQGTQVTVSS	low polyreactivity
QVHLVESGGGLVQAGGSLRLSCAASGRILGYYAMVWYRQAPGKERELVAAISRGGRTNYADSVKGRFTISRDNAKNTVYLQMNSLKPEDTAVYYCAKDVAGLFHVGALYYYWGQGTQVTVSS	low polyreactivity
QVQLQESGGGLLQADGSLRLSCAASGTIFTQSYMGWYRQAPGKEREFVAGISNGTNTNYGDSVKGRFTISRDNAKNTVYLQMNSLKLEDTAVYYCAVKGFYVDVLAYWGQGTHVTVSS	high polyreactivity
QVQLVESGGGLVQAGGSLRLSCAASGFTFRYNDMGWYRQAPGKERELVAVISSDGTTNYADSVKGRFTISRDNAKNTVYLQMNSLKPEDTAVYYCAAWEFRGNAYYVYAFDYWGQGTQVTVSS	low polyreactivity
QVQLVESGGGLVQAGGSLRLSCAASGSIFYDYAMGCYRQAPGKERELVDRISSGGSTYYADSVKGRFTISRDNAKNTVYLQMNSLKPEDSAVYYCNAGVEFAASLYYSDNYDYWGQGTQVTVSS	low polyreactivity
QVQLEESGGGLVQAGGSLRLSCAASGFTSYYAMGWYRQAPGKERELVAAIRYSTVSTYYADAVKGRFTISRDNAKNTVYLQMNIMKPEDTAVYYCAAQRRPYLPGHYYYWGQGTQVTVSS	high polyreactivity
QVQLVESGGGLVQAGGSLRLSCAASGRSFYRNAMGWYRQAPGKERELVAAITSSGASTYYADSVKGRFTISRDNAKNTVYLQMNSLKPEDTAVYYCAAKYVYSVGNYRYDYWGQGTQVTVSS	low polyreactivity
QVQLVESGGGLVQAGGSLRLSCAASGGTFAVYAMGWYRQAPGKEREWVAAIDSGGRTNYADSVKGRFTISRDNAKNTVYLQMNSLKPEDTAVYYCAADGGGQYVRYDYWGQGTQVTVSS	high polyreactivity
QVQLVESGGGLVQAGGSLRLSCAASGGTFLYYMGWYRQAPGKEMELVAAITFSGGSTYYADSVKGRFTISRDNAKNTVYLQMNSLKPEDTAVYYCAAGWYDWPKYLLSVYTYYLYDSWGQGTQVTVSS	low polyreactivity
QVQLVESGGGLVQAGGSLRLSCAASGFTFDYNAMGWYRQAPGKDRELVAVISSSGSRTYYADSVKGRFTISRDNAKNTVYLQMNSLKPEDTAVYYCNSGRTYRRLGDYWGQGTQVTVSS	high polyreactivity
QVQLVESGGGLVQAGGSLRLSCAASGFIFGTYTMGWYRQAPGKERELVAAISKSSGSTYYADSVKGRFTISRDNAKNTVYLQMNSLKPEDTAVYYCAAPTRSYGTPPYDYWGQGTQVTVSS	low polyreactivity
QVQLVESGGGLVQAGGSLRLSCAASGYTLFRNAMGWYRQAPGKERELVAAISRSGARTYYADSVKGRFTISRDNAKTTVYLQMNSLKPDYTAVYYCAAVIKWTKDDYWGQGTQVTVSS	high polyreactivity

Sequence	polyreactivity (PSR sort gate)
QVQIVESGGGLVQAGGSLRLSCAPSGSTFWLYAMGWYRHAPGKERELVASISSRGGSTYYADSVTGRFTISRDNAKNTVYLQMNSLKPEDTAVYYCAAKDIRYDDEYWGQGTQVTVSS	low polyreactivity
QVQLVESGGGLVQAGGSLRLSCAASGLTFYAYAMGWYRQAPGKERELVAAISSRGGRTYYADSVKGRFTISRDNAKNTVYLQMNRLKPEDTAVYYCAARIYRYDTTVVPRYDYWGQGTQVTVSS	high polyreactivity
QVQLVESGGGLVQAGGSLRLICAASGSTLFYNAMGWYRQAPGKERELVAAISSGVRTNYADSVKGRFTISRDNAKITVYLQMNSLKPEDTALYYCAAATYNQDYSYDYWGQGTQVTVSS	low polyreactivity
QVQLVESGGGLVQAGGSLRLSCAASGFIFRLYAMGWYRQAPGKERELVAAITWSGGSTYYADSVKGRFTISRDNAKNTVYLQMNSLKPEDTAVYYCAAYATKNAFEYWGQGTQVTVSS	high polyreactivity
QVQLVESGGGLVQAGGSLRLSCAASGFIFYHYVLGWYRQAPGKERELVAAITRGGSTYADSVKGRFTISRDNAKNTVYLQMNSLKPEDTAVYYCNADYPFSYFTRLMDYWGQGTQVTVSS	low polyreactivity
QVQLVESGGGLVQAGGSLRLSCAASGSTFRYNAMGWYIQAPGKERELVAAITSTGDSTYYADSVKGRFTISRDNAKNTVYLQMNSLKPEYTAVYYCAARSYASPGWRYEYWGQGTQVTVSS	low polyreactivity
QVQLVESGGGIVQAGGSLRLSCAASGRIFLSYAMGWYRQAPGKERELVAAISRNGGSTYYADSVKGRFTISRDNGKNTVYLPMNSLKPEDTAVYYCAAGGDYWGQGTQVTVSS	high polyreactivity
QVQLVESRGGLVQAGGSLRLSCAASGNTFQPYAMGWYRQAPGKERELVAAITWSGDTTYYADSVKARFTISRDNAKNTVYLQMNSLKPEDTAVYYCYPYFWYPDGYTYDYWGQGTQVTVSS	high polyreactivity
QVQLVESGGGLVQAGGSLRLSCAASGSNFAGYAMGWYRPAPGKERALGAAISWSGGSTYYADSVKGRFTISRDNAKNTVYLQINSLKPEDTAVYYCNALRYGWKYNYWGQGTQVTVSS	high polyreactivity
QVQLVESGGGLVQAGGSLRLSCAASGSIFKYYAMGWYRQAPGKERELVAAISSGGRTYYADSVKGRFTISRDNAKNTVYLQMNSLKPEDTAVYYCNRPPWSRGSNYWGQGTQVTVSS	high polyreactivity
QVQLVESGGGLVQAGGSLRLSSADSGRIFNRYAMGSYRQAPGKERELVAAITGSGGRTYYADSVKGRFTISRDNAKNTVYLQMNSLKPEDTAVYYCAATSLIYGYRTYDYWGQGTQVTVSS	high polyreactivity
QVQLVESGGGLVQAGGSLRLSCAASGRIFYSYAMGWYRQAPGKERELVATISSGGSTNYADSVKGRFTISRDNAKNTVYLQMNSLKPEDTAVYYCARDSTYSSYTSNDYWGQGTQVTVSS	high polyreactivity
QVQLVESGGGLVQAGGSLRLSCAASGSTFLYYAMGWYRQAPGKERELVAVISWSGVSTYYADSVKGRFTISRDNAKNTVYLQMNSLKPEVTAVYYCNTGNHYIRTYGYWGQGTQVTVSS	low polyreactivity
QVQLGESGGGLVQAGGSLRLICAASGSTFWTNDMGWYRQAPGKERELVAPISQSAGDTYYADSVKARFTISRDNSKNTFYLQMISLKPEDTAVYYCAADLVFYPFTWDGYYYWGQGTQVTVSS	low polyreactivity
QVQLVESGVGLVQAGGSLRLSSAASGSISYSYAMGWYRQAPGKERELVAAITWVGDSTYYADSVKGRFTISRDNAKNTVYLQMNRQKPEDTAVYYCAADLRFTYPVYRHGGGYDYWGQGTQVTVSS	low polyreactivity
QVQLVESVRGFDQAGVSLRLSCAASGSIFYHNAKGLYRQATVTERELVGAITSDGSTYYADSVKGRFTISRDNGKNTVYLLMNSLKPEDTAVFYCAAEYYGHRYDYLGQGTQVTVSS	low polyreactivity
QVQLVESGGGLVQAGGSLRLTCAASGRIFYRYAMGWYRQAPWKERELVAAIRYSGGRTYYADSVKGRFTISRDNAKNTVYLQMNSLQPEDTAVYYCAADGQWYYAPFRGGDYENDYWGQGTQVTVPS	low polyreactivity
QVQLVESGGGLVQAGGSLRLSCAASGRIFPVNALGWYRQAPGKEREFVAAISYSGVSTRYADSVKGRFTISRDKAKNTVYLQMNSLKPEDTAVYYCAARMSVREDYWGQGTQVNVSS	high polyreactivity
QVQLVESGGGLVQAGGSLRLSCAASGRTFTLYAMGWYRQAPGKERELVAAIRWSGSSTYYADSVKGRFTISRDNAKNTVYLQMNSLKPEDTAVYYCAADRAYRRFSQGAYSPWILKYGYWGQGTQVTVSS	high polyreactivity
QVQLVESGVGLVQAGGSLRLSCAASGSTFEYNAMGWYRQAPGKERELVASSTNYADSVKGRFTISRDNAKNTVYLQMNSLKPEDTAVYYCAREQGVNRNHDYWGQGTQVTVSS	low polyreactivity
QVQLVESGGGLVQAGGSLRLSCAASGFIFQYYAMGWYRQAPGKERELVAAISWRSTSTYYADSVKGRFTISRDNAKNTVYLQMNSLKPEDTAVYYCAASPGFSIGYEYWGQGTQVTVSS	low polyreactivity
